The text below walks through data of patent US20220064272A1 (TAUC3 BIOLOGICS, published 2022).

The target of assay [1] is T1, TauC3 (C-terminally truncated tau fragment ending at aspartate 421 of htau40) (human, UniProt P10636 1-738).
T1 construct: Generated and purified by Genscript; also called Human TauC3; recombinant TauC3 protein
In words: binding ELISA on coated TauC3, OD650. In a few lines: (§1)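 TauC3 antigen, made and purified by Genscript, was coated for a binding ELISA. The antibodies tested were chimeric or humanized IgG4κ expressed in ExpiCHO cells. Binding was recorded as absorbance at 650 nm, and EC50 came from the concentration-response of each antibody.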

Assay [2] concerns the target T1, TauC3 (C-terminally truncated tau …). Kind of assay: binding ELISA on coated TauC3, OD650. The procedure, abridged: as §1
This is another data set of the same source. (In general: In an ELISA, binding on a coated surface is turned into a signal by an enzyme label.)

Assay [3] shares this target. In words: binding ELISA on coated TauC3, OD650. In a few lines: as §1
The source holds these as a separate data set.

Assay [4] has the same target. In words: Biacore kinetics, TauC3 amine-coupled on CM5, antibody series, 1:1 global fit. The text has this:
To determine the affinity of the binding interactions, a biacore kinetic assay was developed which involved immobilizing TauC3 on a CM5 chip via amine coupling and injecting a concentration series of the respective antibody over it.

For assay [5], the target named is T2, full length Tau (2N4R, htau40) (human, UniProt P10636 1-758).
T2 construct: Generated and purified by Genscript; also called FL Tau; FLT
T2 sequence (P10636 other isoform, or with tags, fused parts or gaps limits assumed): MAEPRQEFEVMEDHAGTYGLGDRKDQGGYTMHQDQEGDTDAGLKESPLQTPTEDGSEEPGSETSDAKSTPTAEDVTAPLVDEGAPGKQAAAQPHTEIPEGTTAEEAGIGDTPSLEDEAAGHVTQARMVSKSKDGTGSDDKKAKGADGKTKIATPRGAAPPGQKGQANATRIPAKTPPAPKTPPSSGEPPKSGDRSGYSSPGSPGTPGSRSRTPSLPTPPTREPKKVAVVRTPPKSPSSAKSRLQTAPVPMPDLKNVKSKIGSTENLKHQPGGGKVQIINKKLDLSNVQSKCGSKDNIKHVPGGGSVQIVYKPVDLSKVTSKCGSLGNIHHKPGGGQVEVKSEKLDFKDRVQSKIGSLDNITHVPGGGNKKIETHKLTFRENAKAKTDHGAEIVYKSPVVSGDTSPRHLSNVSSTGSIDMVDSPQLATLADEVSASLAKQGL
Kind of assay: Octet, antibody on Protein G sensor, FL Tau in solution. In a few lines: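 Antibody loaded on Protein G biosensors was tested by Bio-Layer Interferometry (OctetRed96) for binding to purified full-length tau in solution. The tau was made and purified by Genscript. Full-length tau was applied at 500 nM. The result is the binding signal response in nm.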

Assay [6] has as its target T1, TauC3 (C-terminally truncated tau …). Kind of assay: SPR (Biacore) kinetics, TauC3 amine-coupled on CM5, 1:1 global fit. In a few lines: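 Surface plasmon resonance (Biacore) was used with purified TauC3 immobilised on a CM5 chip by amine coupling. A concentration series of each purified antibody was injected over the chip. Association rate, dissociation rate and Kd were obtained by a 1:1 global fit.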
A general note: Surface plasmon resonance follows binding to a sensor surface in real time, without labels.

For assay [7] the target is unchanged. In words: Biacore off-rate ranking, TauC3 amine-coupled on CM5, one antibody concentration; two-phase decay fit, slow phase. Also noted: unit not given here. The procedure: (§2) To further evaluate the binding data observed on the Octet, an off-rate ranking experiment was performed on the Biacore 200 instrument. Biacore offers greater selectivity than the Octet and facilitated the immobilization of TauC3 onto a CM5 chip via amine coupling which stabilizes the antigen. This produces higher quality data with stable baselines and good reproducible responses. Once TauC3 is immobilized, one concentration (5 nM) of antibody is added, followed by a dissociation and regeneration step (Section 8.20). The off-rates were fitted using a two-phase decay model (FIG. 25B) or a one phase decay fitting only the second off-rate (FIG. 25A). The candidates were then ranked based on the off-rates obtained using the fits and compared. The data agreed with the Octet results (albeit with a different ranking order), highlighting Tau01 HMKM, HMKO, HMKP, HMKN and HMKE as the humanized variants with the slowest off-rates. The lack of binding of FL Tau to chimeric and a humanized candidate was also confirmed by Biacore by loading the antibody onto a Protein G chip and adding 250 nM FL Tau.

Assay [8] shares this target. Kind of assay: Biacore off-rate ranking, TauC3 amine-coupled on CM5, one antibody concentration; one-phase exponential decay fit. The procedure: as §2
The target is the same in assay [9]. In words: binding ELISA on TauC3 after 21 days at 37 C in PBS or mouse, human, cynomolgus serum, with non-incubated control. As for the experimental part:
Purified samples of the chimeric and humanized antibodies were incubated in mouse, human and cynomolgus serum for 21 days. The binding of the Tau01 HMKE, HMKM, HMKN, HMKO, HMKP candidate antibodies which had been incubated in the 3 different serums were compared with an antibody incubated in PBS and a 4° C. positive control sample by binding ELISA to TauC3 (FIG. 37). The Tau01 HMKE, HMKM, HMKN, HMKO, HMKP candidate antibodies retained their binding capability after being incubated in mouse, human and cynomolgus serum.

Assay [10] shares this target. In words: binding ELISA on coated TauC3, OD650; right table (HM variants). The procedure, abridged:
as §1

The target is the same in assay [11]. In words: binding ELISA on coated TauC3, OD650. The procedure, abridged: as §1
The source holds these as a separate data set.

The target is the same in assay [12]. In words: binding ELISA, TauC3 coated; FIG. 16 ELISA. The procedure, abridged: as §1
For assay [13] the target is unchanged. Kind of assay: binding ELISA on coated TauC3, OD650. The procedure, abridged: as §1
The source holds these as a separate data set.

For assay [14] the target is unchanged. In words: binding ELISA on coated TauC3, OD650. In a few lines: as §1
The source holds these as a separate data set.

Assay [15] shares this target. In words: binding ELISA, TauC3 coated. The procedure, abridged: as §1
Assay [16] has the same target. In words: binding ELISA on coated TauC3, OD650. The procedure, abridged: as §1
This is another data set of the same source.

Several values for one entry are separate records, joined by “and”; a condition that tells them apart may be missing. Equal values may be shown once.

T1 sequence (P10636 other isoform, or with tags, fused parts or gaps): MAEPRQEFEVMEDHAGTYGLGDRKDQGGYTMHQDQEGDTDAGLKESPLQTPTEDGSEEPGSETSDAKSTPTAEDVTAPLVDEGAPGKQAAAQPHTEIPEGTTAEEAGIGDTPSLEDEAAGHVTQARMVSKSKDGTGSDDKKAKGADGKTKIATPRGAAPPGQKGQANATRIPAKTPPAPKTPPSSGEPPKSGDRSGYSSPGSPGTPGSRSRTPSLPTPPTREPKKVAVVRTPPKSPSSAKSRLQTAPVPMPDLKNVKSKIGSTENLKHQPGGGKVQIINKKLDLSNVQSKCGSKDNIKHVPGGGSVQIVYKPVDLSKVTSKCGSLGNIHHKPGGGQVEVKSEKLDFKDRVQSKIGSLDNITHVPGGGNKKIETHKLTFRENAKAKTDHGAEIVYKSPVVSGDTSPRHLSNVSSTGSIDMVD

B1: Tau01 HBKA (antibody, V domains shown)
VH: EVQVVESGGGLVQPGGSLKLSCAASGFTFNTYAMNWVRQASGKGLEWVARIRSKSNNYATYYADSVKGRFTISRDDSKSMVYLQMDSLKTEDTAVYYCVGGGDFWGQGTLVTVSS
VL: DIQMTQSPSSLSASVGDRVTITCRASQEISVYLGWYQQKPGKAPKRLIYGAFKLQSGVPSRFSGSRSGTEFTLTISSLQPEDFATYYCLQYVRYPWTFGGGTKVEIK
notes: human IgG4 kappa (HuG4K)
Take B1: the 50% effective concentration (EC50) (as a rule, the midpoint of the concentration-response curve) in assay [1] came out at 1.39 nM; in assay [2], 0.92 nM; in assay [3], 0.795 nM.

B2: Tau01 HMKN HuG4k (antibody, V domains shown)
VH: LVQLVESGGGLVQPGGSLKLSCAASGFTFNTYAMNWVRQASGKGLEWVARIRSKSNNYATYYAASVKGRFTISRDDSKSMAYLQMDSLKTEDTAVYYCVGGGDFWGQGTLVTVSS
VL: DIQMTQSPSSLSASVGDRVTITCRASQEISVYLGWYQQKPGKAPKRLIYGAFTLQSGVPSRFSGSRSGTEYTLTISSLQPEDFATYYCLQYVRYPWTFGGGTKVEIK
notes: human IgG4 kappa (HuG4K)
Take B2: the Kd (usually the equilibrium constant for the complex coming apart) in assay [4] turned out to be 0.0249 nM. Besides, in assay [5], the binding result was “no binding”. In [6], the affinity, expressed as Kd, was 0.025 nM; the koff (in general, the first-order rate constant of dissociation) turned out to be 0.0015 s⁻¹; the kon (usually the rate constant with which the complex forms) amounted to 6.03e+07 M⁻¹ s⁻¹. In assay [7], this molecule returned a Kslow of 0.000823. This molecule also registered a koff in [8] of 0.000878 s⁻¹. The EC50 (read off the curve) (in general, the concentration giving half of the maximal effect) in assay [9] was approximately 0.5 nM. Also, the EC50 in assay [10] was 0.624 nM.

B3: Tau01 HFKB (antibody, V domains shown)
VH: LVQLVESGGGLVQPGGSLKLSCAASGFTFNTYAMNWVRQASGKGLEWVGRIRSKSNNYATAYAASVKGRFTISRDDSKNTAYLQMDSLKTEDTAVYYCVGGGDFWGQGTLVTVSS
VL: DIQMTQSPSSLSASVGDRVTITCRASQEISVYLSWFQQKPGKAIKRLIYGAFTLQSGVPSRFSGSRSGSEYTLTISSLQPEDFATYYCLQYVRYPWTFGGGTKVEIK
notes: human IgG4 kappa (HuG4K)
Molecule B3 displayed an EC50 in [11] of 2.93 nM.

B4: Tau01 HMKE HuG4k (antibody, V domains shown)
VH: LVQLVESGGGLVQPGGSLKLSCAASGFTFNTYAMNWVRQASGKGLEWVARIRSKSNNYATYYAASVKGRFTISRDDSKSMAYLQMDSLKTEDTAVYYCVGGGDFWGQGTLVTVSS
VL: DIQMTQSPSSLSASVGDRVTITCRASQEISVYLGWFQQKPGKAPKRLIYGAFKLQSGVPSRFSGSRSGTEFTLTISSLQPEDFATYYCLQYVRYPWTFGGGTKVEIK
notes: human IgG4 kappa (HuG4K); also called KMKE
B4: in assay [4], the dissociation constant (Kd) was 0.0201 nM and the koff was 0.00283 s⁻¹. Besides, the binding result in assay [5] was “no binding”. In [6], this molecule had a Kd of 0.02 nM, an off-rate constant (koff) of 0.00283 s⁻¹ and an on-rate (kon) of 1.41e+08 M⁻¹ s⁻¹. The same molecule had a Kslow in [7] of 0.000883. This molecule showed a koff in assay [8] of 0.000953 s⁻¹. For the same molecule, in assay [9], the concentration giving a half-maximal response (EC50 (read off the curve)) is approximately 0.8 nM. The EC50 in [10] is 0.437 nM and 0.532 nM.

B5: Tau01 HBKC (antibody, V domains shown)
VH: EVQVVESGGGLVQPGGSLKLSCAASGFTFNTYAMNWVRQASGKGLEWVARIRSKSNNYATYYADSVKGRFTISRDDSKSMVYLQMDSLKTEDTAVYYCVGGGDFWGQGTLVTVSS
VL: DIQMTQSPSSLSASVGDRVTITCRASQEISVYLSWFQQKPGKAPKRLIYGAFKLQSGVPSRFSGSRSGTEYTLTISSLQPEDFATYYCLQYVRYPWTFGGGTKVEIK
notes: human IgG4 kappa (HuG4K)
With B5, the EC50 stood at 0.99 nM in assay [1] and 0.84 nM in assay [12].

B6: Tau01 HBKB (antibody, V domains shown)
VH: EVQVVESGGGLVQPGGSLKLSCAASGFTFNTYAMNWVRQASGKGLEWVARIRSKSNNYATYYADSVKGRFTISRDDSKSMVYLQMDSLKTEDTAVYYCVGGGDFWGQGTLVTVSS
VL: DIQMTQSPSSLSASVGDRVTITCRASQEISVYLSWFQQKPGKAIKRLIYGAFTLQSGVPSRFSGSRSGSEYTLTISSLQPEDFATYYCLQYVRYPWTFGGGTKVEIK
notes: human IgG4 kappa (HuG4K)
As for B6, the EC50 in assay [13] was 0.402 nM; in [14] it was 0.402 nM; in assay [15], 0.78 nM; in [16], 0.402 nM; in assay [12], 0.81 nM; in assay [3] it was 0.767 nM.

B7: Tau01 HMKP HuG4k (antibody, V domains shown)
VH: LVQLVESGGGLVQPGGSLKLSCAASGFTFNTYAMNWVRQASGKGLEWVARIRSKSNNYATYYAASVKGRFTISRDDSKSMAYLQMDSLKTEDTAVYYCVGGGDFWGQGTLVTVSS
VL: DIQMTQSPSSLSASVGDRVTITCRASQEISVYLGWFQQKPGKAPKRLIYGAFKLQSGVPSRFSGSRSGTEYTLTISSLQPEDFATYYCLQYVRYPWTFGGGTKVEIK
notes: human IgG4 kappa (HuG4K); Lead candidate
As to B7, in [4], the koff is 0.00186 s⁻¹ and the kon is 1.43e+08 M⁻¹ s⁻¹. Moreover, in assay [5], the binding result is given as “no binding”. Moreover, in assay [6], the Kd came out at 0.013 nM, the koff is 0.00186 s⁻¹ and the kon stood at 1.43e+08 M⁻¹ s⁻¹. Moreover, the Kslow in [7] was found to be 0.000777. Moreover, in [8], the koff came to 0.000811 s⁻¹. Also, the “EC50 (read off the curve)” value in assay [9] is approximately 0.6 nM. In [10], this molecule had an EC50 of 0.499 nM.

B8: Tau01 HMKO HuG4k (antibody, V domains shown)
VH: LVQLVESGGGLVQPGGSLKLSCAASGFTFNTYAMNWVRQASGKGLEWVARIRSKSNNYATYYAASVKGRFTISRDDSKSMAYLQMDSLKTEDTAVYYCVGGGDFWGQGTLVTVSS
VL: DIQMTQSPSSLSASVGDRVTITCRASQEISVYLGWYQQKPGKAPKRLIYGAFSLQSGVPSRFSGSRSGTEYTLTISSLQPEDFATYYCLQYVRYPWTFGGGTKVEIK
notes: human IgG4 kappa (HuG4K)
For the molecule B8, in assay [4], the Kd turned out to be 0.0594 nM and the koff was determined as 0.00352 s⁻¹. For the same molecule, the binding result in [5] is “no binding”. In assay [6], this molecule yielded a Kd of 0.059 nM, a koff of 0.00352 s⁻¹ and a kon of 5.93e+07 M⁻¹ s⁻¹. Also, the Kslow in assay [7] was 0.000349. Besides, the koff in [8] amounted to 0.000473 s⁻¹. Also, in [9], the “EC50 (read off the curve)” value was approximately 0.7 nM. In [10], it took 0.583 nM to reach a half-maximal effect (EC50).
